Experimental findings from patent US20250092426, “CAS ENDONUCLEASES AND RELATED METHODS” (Flagship Pioneering Innovations VII, LLC, published 2025) are described below.

This data set addresses T1, CasEnd-33 (synthetic construct).
T1 chain: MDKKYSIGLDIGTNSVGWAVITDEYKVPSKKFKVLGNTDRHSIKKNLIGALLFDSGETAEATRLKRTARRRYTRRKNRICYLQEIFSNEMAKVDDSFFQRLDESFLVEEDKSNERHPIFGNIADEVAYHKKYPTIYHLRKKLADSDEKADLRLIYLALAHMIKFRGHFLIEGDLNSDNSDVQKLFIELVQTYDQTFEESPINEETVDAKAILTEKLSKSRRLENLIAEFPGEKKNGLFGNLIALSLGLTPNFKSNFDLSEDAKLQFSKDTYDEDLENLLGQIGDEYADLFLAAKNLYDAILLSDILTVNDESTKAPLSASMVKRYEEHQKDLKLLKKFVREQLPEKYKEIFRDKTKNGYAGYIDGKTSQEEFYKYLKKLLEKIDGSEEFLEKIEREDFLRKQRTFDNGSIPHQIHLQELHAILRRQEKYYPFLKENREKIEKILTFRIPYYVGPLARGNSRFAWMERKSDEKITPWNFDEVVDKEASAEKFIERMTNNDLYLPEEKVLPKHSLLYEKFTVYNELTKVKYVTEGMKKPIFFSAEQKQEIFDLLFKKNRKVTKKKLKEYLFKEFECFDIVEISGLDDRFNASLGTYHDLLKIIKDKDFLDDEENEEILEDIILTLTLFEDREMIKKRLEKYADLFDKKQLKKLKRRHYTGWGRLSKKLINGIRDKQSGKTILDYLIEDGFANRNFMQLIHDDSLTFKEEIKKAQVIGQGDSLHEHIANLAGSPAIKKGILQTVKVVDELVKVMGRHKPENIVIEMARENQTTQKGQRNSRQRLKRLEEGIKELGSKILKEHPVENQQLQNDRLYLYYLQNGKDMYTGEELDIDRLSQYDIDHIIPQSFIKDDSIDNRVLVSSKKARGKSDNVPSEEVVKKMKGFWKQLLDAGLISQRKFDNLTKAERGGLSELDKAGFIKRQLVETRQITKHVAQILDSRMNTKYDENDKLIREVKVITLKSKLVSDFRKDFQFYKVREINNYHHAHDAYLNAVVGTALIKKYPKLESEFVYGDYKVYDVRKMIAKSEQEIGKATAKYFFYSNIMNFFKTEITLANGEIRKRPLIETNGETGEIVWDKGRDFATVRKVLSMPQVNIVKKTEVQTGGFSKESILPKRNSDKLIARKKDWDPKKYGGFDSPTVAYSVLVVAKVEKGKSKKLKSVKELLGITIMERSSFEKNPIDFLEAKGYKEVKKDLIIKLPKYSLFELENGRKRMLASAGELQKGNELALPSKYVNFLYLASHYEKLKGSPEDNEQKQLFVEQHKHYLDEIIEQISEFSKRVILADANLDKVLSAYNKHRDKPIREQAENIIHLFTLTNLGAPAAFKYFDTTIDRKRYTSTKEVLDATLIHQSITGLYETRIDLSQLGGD
The data set is described as follows: cell_activity; +++; HEK293T; PAM not stated. Put shortly:
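BFP-to-GFP conversion via reverse transcriptase fusion with each Cas endonuclease plus template RNA: 200 ng of each plasmid nucleofected into 250,000 BFP-expressing HEK293T cells (program DS-150). Percent GFP+ cells by flow cytometry at day 4 measured editing.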

B1: BFP-to-GFP template RNA ; BFP reporter protospacer (ssRNA ; dsDNA)
RNA: GCCGAAGCACUGCACGCCGUGUUUUAGAGCUAGAAAUAGCAAGUUAAAAUAAGGCUAGUCCGUUAUCAACUUGAAAAAGUGGCACCGAGUCGGUGCACCCUGACGUACGGCGUGCAGUGCUU
DNA 1: GCCGAAGCACTGCACGCCGT
DNA 2: ACGGCGTGCAGTGCTTCGGC
For B1, the activity was ≥ 100 % of reference.
